What was measured:
[1] = molecular target: T1, βARK1 (Bos taurus, UniProt P21146); assay: Co-immunoprecipitation and GST pull-down with purified βARK1; assay type: binding; details: immunoprecipitated FLAG-HEAT or PI3KΔHEAT-HA
T1 construct: gift from Dr. Robert Lefkowitz
T1 sequence (P21146 1-689): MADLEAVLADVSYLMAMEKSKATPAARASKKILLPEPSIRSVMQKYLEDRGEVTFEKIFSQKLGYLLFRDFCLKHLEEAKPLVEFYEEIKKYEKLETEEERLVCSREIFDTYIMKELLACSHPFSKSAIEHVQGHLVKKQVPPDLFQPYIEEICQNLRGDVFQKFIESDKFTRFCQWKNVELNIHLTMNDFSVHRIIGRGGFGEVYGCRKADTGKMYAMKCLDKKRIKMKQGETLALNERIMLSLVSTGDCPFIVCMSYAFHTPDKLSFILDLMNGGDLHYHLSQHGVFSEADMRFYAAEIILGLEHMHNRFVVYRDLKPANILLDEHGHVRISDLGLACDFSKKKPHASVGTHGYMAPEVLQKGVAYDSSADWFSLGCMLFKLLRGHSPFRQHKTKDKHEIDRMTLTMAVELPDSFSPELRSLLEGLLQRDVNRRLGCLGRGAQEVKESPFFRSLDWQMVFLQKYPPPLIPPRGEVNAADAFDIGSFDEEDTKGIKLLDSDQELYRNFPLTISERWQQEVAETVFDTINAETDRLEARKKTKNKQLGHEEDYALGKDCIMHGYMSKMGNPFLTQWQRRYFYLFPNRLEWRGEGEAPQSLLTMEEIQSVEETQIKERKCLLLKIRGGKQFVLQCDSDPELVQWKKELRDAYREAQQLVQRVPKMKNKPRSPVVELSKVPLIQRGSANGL
Method: GST Fusion Protein Expression and Pull-down Experiments—Plasmid DNAs were transformed in Escherichia coli BL21 cells. Overnight cultures were grown in LB medium supplemented with ampicillin (100 μg/ml), diluted to an A600 of 0.2 in the same medium and grown for another 1 hr at 37° C. Cultured cells were then induced with 0.1 mM isopropyl-1-thio-β-D-galactopyranoside for 2 hr. Cell were then pelleted, washed once with 1× phosphate-buffered saline and resuspended in 1× phosphate-buffered saline containing 1 mM phenylmethylsulfonyl fluoride, 2 mg/ml lysozyme and incubated for 15 min on ice. Cells were lysed by adding Triton X-100 1%. Solublized cells were incubated with DNase (300 units) for 15 min on ice and centrifuged at 13,000 rpm for 10 min.
Glutathione-Sepharose beads were added to the supernatant and gently agitated at 4° C. for 2 hr. Beads were washed three times with ice cold 1×PBS containing 1% Triton X-100 followed by three washes with cold PBS without detergent. Protein concentration was determined using a DC protein assay kit (Bio Rad), and the integrity of the fusion protein was analyzed by SDS-polyacrylamide gel electrophoresis and Coomassie staining.
The beads were spun and washed three times with binding buffer followed by three washes with binding buffer without detergent. The beads were resuspended in SDS gel loading buffer and resolved by gel electrophoresis, immunblotting and detection was carried out described later.
FLAG-HEAT and PI3KΔHEAT proteins were immunoprecipitated from cell extracts using monoclonal FLAG and HA antibodies respectively, fractionated by SDS-PAGE and analyzed by immunoblotting with βARK1 monoclonal antibody. […] Levels of expression of HEAT and PI3KΔHEAT proteins were similar (FIG. 8B, lower panel).
To investigate whether there was a direct physical interaction between the HEAT domain of PI3K and βARK1, GST-HEAT fusion protein containing 535-732 amino acid residues of PI3Kγ was produced, which including the entire HEAT domain and flanking upstream 10 amino acids and downstream 7 amino acids. […]

[2] = molecular target: T2, V2R-GFP (Homo sapiens, UniProt P30518); assay: Endocytosis of V2R-GFP in live cells by confocal microscopy; assay type: cell-based; details: AVP 10 μM; HEAT co-expressed
T2 construct: expressed in transfected cells; host or cells: HEK 293
Method: Disruption of the endogenous βARK1/PI3K interaction by the HEAT protein attenuated V2R endocytosis. Endocytosis of V2R-GFP in live cells was monitored for 20 min following AVP (10 μM) stimulation in the absence or presence of HEAT protein co-expression using confocal microscopy. HEK 293 cells were transfected with either GFP-V2R (2 μg)/pRK5 (2 μg) or GFP-V2R (2 μg)/HEAT (2 μg). V2R internalization was followed in the same cell after agonist stimulation. Prior to agonist, the distribution of V2R-GFP was found distinctly at the plasma membrane (FIG. 14, 0 min). Following agonist treatment, there was redistribution of the V2R-GFP into membrane puncta consistent with entry into clathrin coated pits. With time, this was followed by the formation of cytoplasmic aggregates, and then with the complete loss of membrane fluorescence (FIG. 14, 6-24 min). […] In FIG. 14, panels on the left represent cells transfected with the V2R-GFP alone (panels show the same cell monitored at 0, 6, 12, 18, and 24 min following stimulation). Panels on the right represent cell transfected with V2R-GFP and HEAT (panels show the same cell monitored as above). In the absence of HEAT, agonist caused the internalization V2R5 as shown by the formation of distinct cytoplasmic aggregates and complete loss of membrane fluorescence.

[3] = test system: PI3K; assay: βAR associated and endogenous PI3K activity (lipid kinase assay) in HEK-293 cells; details: HEAT (4 μg cDNA) co-transfected; 10 μM isoproterenol
Method: Lipid Kinase Assays—Cells were lysed in lysis buffer and 2 mg cytosolic extract was used for immunoprecipitation with either the C5/1 monoclonal antibody directed against βARK1, the anti-FLAG M2 monoclonal antibody (Sigma) or antibodies to p110γ, or p110β (Santa Cruz Biotechnology) and protein G-agarose. Sedimented beads were then washed once with 1 ml of lysis buffer, thrice with 1 ml of phosphate-buffered saline (1× phosphate-buffered saline, 1% NP-40 and 100 μM sodium orthovanadate), thrice with 1 ml of Tris/LiCl (100 mM Tris-HCl (pH 7.4), 5 mM LiCl and 100 μM sodium orthovanadate) and twice with TNE (10 mM Tris Cl (pH 7.4), 150 mM NaCl, 5 mM EDTA and 100 μM sodium orthovanadate). […] Autoradiography of dried plates was used to detect signals, and PIP was quantified by phosphorimaging. […] Values are expressed as fold increase/decrease relative to wild-type/control.
They used HEK-293 cells transfected with either FLAG epitope tagged β1AR or β2AR plasmids and monitored the association of PI3K to the receptor after agonist stimulation. […] The FLAG epitope was immunoprecipitated from 500 ug of protein from the cytosolic extracts and PI3K activity measured.
HEK-293 cells were transfected with FLAG β1AR (upper panel) and FLAG β2AR (lower panel). […] Cell extracts were used to immunoprecipitate β1AR and β2AR using the anti-FLAG antibody and PI3K activity was measured in the immunoprecipitates.

B1: HEAT: 197 amino acid HEAT domain of PI3Kγ, FLAG epitope-tagged (SEQ ID NO: 2), overexpressed in cells (protein, listed as Homo sapiens)
chain: MDYKDDDDKHPIALPKHQPTPDDRVRAEMPNQLRKQLEAIIATDTAEDKELLWHFRYESLKHPKAYPKLFSSVKWGQQEIVAKTYQLLARREVWDQSALDVGLTMQLLDCNFSDENVRAIAVQKLESLEDDDVLHYLLQLVQAVKFEPYHDSALARFLLKRGLRNKRIGHFLFWFLRSEIAQSRHYQQRFAVILEAYLRGCGTA
modifications: FLAG tag
association with purified βARK1 (immune complexes from HEK 293 extracts) [1]: found to associate
receptor endocytosis (redistribution of V2R-GFP) [2]: completely inhibited
FLAG-β2AR associated PI3K activity [3]: marked decrease

Source: patent publication US20060026702A1, “Phosphoinositide 3-kinase mediated inhibition of GPCRs” (DUKE UNIVERSITY, priority 2002, published 2006)
